Test results published in patent US20230139053A1.

Tests used:
[1] = biological target: anti-A2M antibody (MAB) labeled with a donor fluorophore; assay: competitive TR-FRET, competitor acceptor-labeled isolated A2M, whole blood; A2M 200 ug/mL, multiplex cals, 5 min (FIG. 2I)
[2] = biological target: anti-A2M antibody (MAB) labeled with a donor fluorophore; assay: competitive TR-FRET, competitor acceptor-labeled isolated A2M, whole blood; A2M 500 ug/mL, singleplex cals, 5 min (FIG. 2I)
[3] = biological target: anti-A2M antibody (MAB) labeled with a donor fluorophore; assay: competitive TR-FRET, competitor acceptor-labeled isolated A2M; unlabeled A2M 2000 ug/mL, mean of 4 replicates (FIG. 2G)
[4] = biological target: anti-A2M antibody (MAB) labeled with a donor fluorophore; assay: competitive TR-FRET, competitor acceptor-labeled isolated A2M, whole blood; A2M 1000 ug/mL, singleplex cals, 5 min (FIG. 2I)
[5] = biological target: anti-A2M antibody (MAB) labeled with a donor fluorophore; assay: competitive TR-FRET, competitor acceptor-labeled isolated A2M, whole blood; A2M 500 ug/mL, multiplex cals, 5 min (FIG. 2I)
[6] = biological target: anti-A2M antibody (MAB) labeled with a donor fluorophore; assay: competitive TR-FRET, competitor acceptor-labeled isolated A2M, whole blood; A2M 200 ug/mL, singleplex cals, 5 min (FIG. 2I)
[7] = biological target: anti-A2M antibody (MAB) labeled with a donor fluorophore; assay: competitive TR-FRET, competitor acceptor-labeled isolated A2M; unlabeled A2M 1000 ug/mL, mean of 4 replicates (FIG. 2G)
[8] = biological target: anti-A2M antibody (MAB) labeled with a donor fluorophore; assay: competitive TR-FRET, competitor acceptor-labeled isolated A2M, whole blood; A2M 4000 ug/mL, singleplex cals, 30 min (FIG. 2I)
[9] = biological target: anti-A2M antibody (MAB) labeled with a donor fluorophore; assay: competitive TR-FRET, competitor acceptor-labeled isolated A2M, whole blood; A2M 0 ug/mL, singleplex cals, 30 min (FIG. 2I)
[10] = biological target: anti-A2M antibody (MAB) labeled with a donor fluorophore; assay: competitive TR-FRET, competitor acceptor-labeled isolated A2M; unlabeled A2M 500 ug/mL, mean of 4 replicates (FIG. 2G)
[11] = biological target: anti-A2M antibody (MAB) labeled with a donor fluorophore; assay: competitive TR-FRET, competitor acceptor-labeled isolated A2M, whole blood; A2M 0 ug/mL, singleplex cals, 5 min (FIG. 2I)
[12] = biological target: anti-A2M antibody (MAB) labeled with a donor fluorophore; assay: competitive TR-FRET, competitor acceptor-labeled isolated A2M, whole blood; A2M 2000 ug/mL, singleplex cals, 30 min (FIG. 2I)
[13] = biological target: anti-A2M antibody (MAB) labeled with a donor fluorophore; assay: competitive TR-FRET, competitor acceptor-labeled isolated A2M, whole blood; A2M 2000 ug/mL, singleplex cals, 5 min (FIG. 2I)
[14] = biological target: anti-A2M antibody (MAB) labeled with a donor fluorophore; assay: competitive TR-FRET, competitor acceptor-labeled isolated A2M, whole blood; A2M 4000 ug/mL, multiplex cals, 5 min (FIG. 2I)
[15] = biological target: anti-A2M antibody (MAB) labeled with a donor fluorophore; assay: competitive TR-FRET, competitor acceptor-labeled isolated A2M; unlabeled A2M 0 ug/mL, mean of 4 replicates (FIG. 2G)
[16] = biological target: anti-A2M antibody (MAB) labeled with a donor fluorophore; assay: competitive TR-FRET, competitor acceptor-labeled isolated A2M, whole blood; A2M 1000 ug/mL, singleplex cals, 30 min (FIG. 2I)
[17] = biological target: anti-A2M antibody (MAB) labeled with a donor fluorophore; assay: competitive TR-FRET, competitor acceptor-labeled isolated A2M, whole blood; A2M 2000 ug/mL, multiplex cals, 5 min (FIG. 2I)
[18] = biological target: anti-A2M antibody (MAB) labeled with a donor fluorophore; assay: competitive TR-FRET, competitor acceptor-labeled isolated A2M; unlabeled A2M 4000 ug/mL, mean of 4 replicates (FIG. 2G)
[19] = biological target: anti-A2M antibody (MAB) labeled with a donor fluorophore; assay: competitive TR-FRET, competitor acceptor-labeled isolated A2M, whole blood; A2M 200 ug/mL, multiplex cals, 30 min (FIG. 2I)
[20] = biological target: anti-A2M antibody (MAB) labeled with a donor fluorophore; assay: competitive TR-FRET, competitor acceptor-labeled isolated A2M, whole blood; A2M 200 ug/mL, singleplex cals, 30 min (FIG. 2I)
[21] = biological target: anti-A2M antibody (MAB) labeled with a donor fluorophore; assay: competitive TR-FRET, competitor acceptor-labeled isolated A2M, whole blood; A2M 1000 ug/mL, multiplex cals, 5 min (FIG. 2I)
[22] = biological target: anti-A2M antibody (MAB) labeled with a donor fluorophore; assay: competitive TR-FRET, competitor acceptor-labeled isolated A2M, whole blood; A2M 0 ug/mL, multiplex cals, 5 min (FIG. 2I)
[23] = biological target: anti-A2M antibody (MAB) labeled with a donor fluorophore; assay: competitive TR-FRET, competitor acceptor-labeled isolated A2M, whole blood; A2M 0 ug/mL, multiplex cals, 30 min (FIG. 2I)
[24] = biological target: anti-A2M antibody (MAB) labeled with a donor fluorophore; assay: competitive TR-FRET, competitor acceptor-labeled isolated A2M, whole blood; A2M 2000 ug/mL, multiplex cals, 30 min (FIG. 2I)
[25] = biological target: anti-A2M antibody (MAB) labeled with a donor fluorophore; assay: competitive TR-FRET, competitor acceptor-labeled isolated A2M, whole blood; A2M 500 ug/mL, multiplex cals, 30 min (FIG. 2I)
[26] = biological target: anti-A2M antibody (MAB) labeled with a donor fluorophore; assay: competitive TR-FRET, competitor acceptor-labeled isolated A2M; unlabeled A2M 200 ug/mL, mean of 4 replicates (FIG. 2G)
[27] = biological target: anti-A2M antibody (MAB) labeled with a donor fluorophore; assay: competitive TR-FRET, competitor acceptor-labeled isolated A2M, whole blood; A2M 4000 ug/mL, multiplex cals, 30 min (FIG. 2I)
[28] = biological target: anti-A2M antibody (MAB) labeled with a donor fluorophore; assay: competitive TR-FRET, competitor acceptor-labeled isolated A2M, whole blood; A2M 500 ug/mL, singleplex cals, 30 min (FIG. 2I)
[29] = biological target: anti-A2M antibody (MAB) labeled with a donor fluorophore; assay: competitive TR-FRET, competitor acceptor-labeled isolated A2M, whole blood; A2M 1000 ug/mL, multiplex cals, 30 min (FIG. 2I)
[30] = biological target: anti-A2M antibody (MAB) labeled with a donor fluorophore; assay: competitive TR-FRET, competitor acceptor-labeled isolated A2M, whole blood; A2M 4000 ug/mL, singleplex cals, 5 min (FIG. 2I)

B1: A2M (alpha-2-macroglobulin), unlabeled calibrator / analyte (protein)
chain: SVSGKPQYMVLVPSLLHTETTEKGCVLLSYLNETVTVSASLESVRGNRSLFTDLEAENDVLHCVAFAVPKSSSNEEVMFLTVQVKGPTQEFKKRTTVMVKNEDSLVFVQTDKSIYKPGQTVKFRVVSMDENFHPLNELIPLVYIQDPKGNRIAQWQSFQLEGGLKQFSFPLSSEPFQGSYKVVVQKKSGGRTEHPFTVEEFVLPKFEVQVTVPKIITILEEEMNVSVCGLYTYGKPVPGHVTVSICRKYSDASDCHGEDSQAFCEKFSGQLNSHGCFYQQVKTKVFQLKRKEYEMKLHTEAQIQEEGTVVELTGRQSSEITRTITKLSFVKVDSHFRQGIPFFGQVRLVDGKGVPIPNKVIFIRGNEANYYSNATTDEHGLVQFSINTTNVMGTSLTVRVNYKDRSPCYGYQWVSEEHEEAHHTAYLVFSPSKSFVHLEPMSHELPCGHTQTVQAHYILNGGTLLGLKKLSFYYLIMAKGGIVRTGTHGLLVKQEDMKGHFSISIPVKSDIAPVARLLIYAVLPTGDVIGDSAKYDVENCLANKVDLSFSPSQSLPASHAHLRVTAAPQSVCALRAVDQSVLLMKPDAELSASSVYNLLPEKDLTGFPGPLNDQDNEDCINRHNVYINGITYTPVSSTNEKDMYSFLEDMGLKAFTNSKIRKPKMCPQLQQYEMHGPEGLRVGFYESDVMGRGHARLVHVEEPHTETVRKYFPETWIWDLVVVNSAGVAEVGVTVPDTITEWKAGAFCLSEDAGLGISSTASLRAFQPFFVELTMPYSVIRGEAFTLKATVLNYLPKCIRVSVQLEASPAFLAVPVEKEQAPHCICANGRQTVSWAVTPKSLGNVNFTVSAEALESQELCGTEVPSVPEHGRKDTVIKPLLVEPEGLEKETTFNSLLCPSGGEVSEELSLKLPPNVVEESARASVSVLGDILGSAMQNTQNLLQMPYGCGEQNMVLFAPNIYVLDYLNETQQLTPEIKSKAIGYLNTGYQRQLNYKHYDGSYSTFGERYGRNQGNTWLTAFVLKTFAQARAYIFIDEAHITQALIWLSQRQKDNGCFRSSGSLLNNAIKGGVEDEVTLSAYITIALLEIPLTVTHPVVRNALFCLESAWKTAQEGDHGSHVYTKALLAYAFALAGNQDKRKEVLKSLNEEAVKKDNSVHWERPQKPKAPVGHFYEPQAPSAEVEMTSYVLLAYLTAQPAPTSEDLTSATNIVKWITKQQNAQGGFSSTQDTVVALHALSKYGAATFTRTGKAAQVTIQSSGTFSSKFQVDNNNRLLLQQVSLPELPGEYSMKVTGEGCVYLQTSLKYNILPEKEEFPFALGVQTLPQTCDEPKAHTSFQISLSVSYTGSRSASNMAIVDVKMVSGFIPLKPTVKMLERSNHVSRTEVSSNHVLIYLDKVSNQTLSLFFTVLQDVPVRDLKPAIVKVYDYYETDEFAIAEYNAPCSKDLGNA
F/B [1]: 0.83 | F/B [2]: 0.72 | F/B Mean [3]: 0.532 | F/B [4]: 0.58 | F/B [5]: 0.71 | F/B [6]: 0.88 | F/B Mean [7]: 0.666 | F/B [8]: 0.33 | F/B [9]: 1 | F/B Mean [10]: 0.795 | F/B [11]: 1 | F/B [12]: 0.43 | F/B [13]: 0.43 | F/B [14]: 0.34 | F/B Mean [15]: 1 | F/B [16]: 0.59 | F/B [17]: 0.45 | F/B Mean [18]: 0.393 | F/B [19]: 0.87 | F/B [20]: 0.88 | F/B [21]: 0.58 | F/B [22]: 1 | F/B [23]: 1 | F/B [24]: 0.45 | F/B [25]: 0.74 | F/B Mean [26]: 0.905 | F/B [27]: 0.33 | F/B [28]: 0.71 | F/B [29]: 0.56 | F/B [30]: 0.33
